Source: doi:10.1101/575795

Molecular target: CCR5-SNAP labeled with Alexa-488 (CCR5-SNAP-488) (human) (UniProt P51681)
Experiment: fluorescence cross-correlation spectroscopy

UniProt P51681, sequence (P51681 whole entry): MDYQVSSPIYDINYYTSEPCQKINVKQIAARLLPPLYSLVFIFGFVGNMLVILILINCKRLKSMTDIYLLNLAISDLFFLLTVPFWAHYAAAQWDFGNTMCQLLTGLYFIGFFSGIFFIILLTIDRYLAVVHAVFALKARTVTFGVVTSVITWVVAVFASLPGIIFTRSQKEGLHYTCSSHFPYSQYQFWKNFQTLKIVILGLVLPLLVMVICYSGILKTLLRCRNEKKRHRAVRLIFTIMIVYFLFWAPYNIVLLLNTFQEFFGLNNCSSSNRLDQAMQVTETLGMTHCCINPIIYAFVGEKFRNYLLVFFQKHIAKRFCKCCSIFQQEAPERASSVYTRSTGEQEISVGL

| Substance | Kd | Ki |
| --- | --- | --- |
| Alexa-647-labeled 6P4-RANTES (6P4-647) (from UniProt P13501 24-91) (ligand) | 10.4 nM | – |
| Alexa-647-labeled 5P14-RANTES (5P14-647) (from UniProt P13501 24-91) (ligand) | 0.48 nM | – |
| 5P12-RANTES, non-labeled (from UniProt P13501 24-91) (ligand) | – | 0.14 nM |
| 6P4-RANTES, non-labeled (from UniProt P13501 24-91) (ligand) | – | 3.5 nM |
| Alexa-647-labeled 5P12-RANTES (5P12-647) (from UniProt P13501 24-91) (ligand) | 0.37 nM | – |
| Alexa-647-labeled PSC-RANTES (PSC-647) (from UniProt P13501 24-91) (ligand) | 6.6 nM | – |
